2 molecules from US20180273626A1 (Stanford University, published 2018) can be followed below.

The target in assay [1] is T1, FcεRI on primary human basophils (human, UniProt P12319 26-257).
T1 construct: whole, on cells; on cells it stands with gamma chains (and a beta chain); also called FcεRIα on basophils; E2_79-treated basophils
T1 sequence (looked up): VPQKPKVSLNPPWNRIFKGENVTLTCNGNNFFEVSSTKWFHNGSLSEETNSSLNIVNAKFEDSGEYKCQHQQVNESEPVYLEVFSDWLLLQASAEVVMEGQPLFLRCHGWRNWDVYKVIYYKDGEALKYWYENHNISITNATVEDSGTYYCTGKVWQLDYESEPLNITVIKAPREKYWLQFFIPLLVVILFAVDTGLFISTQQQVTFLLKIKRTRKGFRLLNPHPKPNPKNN
As to the kind of experiment: flow cytometry on primary human basophils, anti-biotin staining. The source says: (§1) Blood was drawn from two healthy volunteers and a third volunteer with a history of food allergy ranging in age from 21 to 37 (the protocol for this study was approved by the Institutional Review Board of Stanford University, and all informed consent was obtained from all subjects). Blood was collected in heparin vacutainer tubes (BD), and washed in 10 blood volumes of BF buffer (RPMI-1640 (Life Technologies) supplemented with 10% fetal calf serum (FCS; Gibco) and 1% penicillin/streptomycin (Gibco)). […] The following day cells were washed three times with BF buffer at 4° C. and stained for analysis.
(§2) Stained cells were then lysed with RBS lysis buffer (BioLegend) for 5 min at room temperature, and washed with FACS buffer (PBS pH 7.4 supplemented with 10% FCS). Data were collected on a DxP FACSCAN from Cytek Development in Fremont, Calif. (10 colors with three lasers—488, 639, 407) using FlowJo CE and analyzed using FlowJo (version 10).

Assay [2] addresses T2, CD23 on B cells (human, UniProt P06734 1-321).
T2 construct: whole, on cells; also called CD23 receptor; CD23+ B-cells
T2 sequence (looked up): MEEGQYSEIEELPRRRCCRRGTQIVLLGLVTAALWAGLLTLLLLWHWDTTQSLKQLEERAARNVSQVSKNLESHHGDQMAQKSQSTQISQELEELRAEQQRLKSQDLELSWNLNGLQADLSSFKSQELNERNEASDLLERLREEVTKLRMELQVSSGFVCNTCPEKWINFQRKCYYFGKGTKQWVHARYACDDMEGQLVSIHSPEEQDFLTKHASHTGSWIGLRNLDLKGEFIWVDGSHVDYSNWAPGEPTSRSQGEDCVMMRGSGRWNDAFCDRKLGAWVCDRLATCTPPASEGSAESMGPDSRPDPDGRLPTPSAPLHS
As to the kind of experiment: summary sentence of Example 1.

For assay [3], the target named is T2, CD23 on B cells. As to the kind of experiment: flow cytometry on CD23+ B cells.
Text: as §1, §2

B1: IgE-R419N-Fc3-4 (other)
chain: CADSNPRGVSAYLSRPSPFDLFIRKSPTITCLVVDLAPSKGTVNLTWSRASGKPVNHSTRKEEKQRNGTLTVTSTLPVGTRDWIEGETYQCNVTHPHLPRALMRSTTKTSGPRAAPEVYAFATPEWPGSRDKRTLACLIQNFMPEDISVQWLHNEVQLPDARHSTTQPRKTKGSGFFVFSRLEVTRAEWEQKDEFICRAVHEAASPSQTVQRAVSVNP
modifications: additional N-linked glycan at N419 (Asn-92 of SEQ ID NO: 2)
notes: Mammalian derived (HEK-6E); biotinylated in the basophil exchange assays; also called R419N-IgE-Fc3-4; R419N mutant
Consider B1, for which the binding result (in assay [1]; with CD23 on B cells [2]) was “binds” in each case.

B2: IgE-Fc3-4 (other)
chain: CADSNPRGVSAYLSRPSPFDLFIRKSPTITCLVVDLAPSKGTVNLTWSRASGKPVNHSTRKEEKQRNGTLTVTSTLPVGTRDWIEGETYQCRVTHPHLPRALMRSTTKTSGPRAAPEVYAFATPEWPGSRDKRTLACLIQNFMPEDISVQWLHNEVQLPDARHSTTQPRKTKGSGFFVFSRLEVTRAEWEQKDEFICRAVHEAASPSQTVQRAVSVNP
notes: Made both in insect cells (High Five) and in mammalian cells (HEK-6E); the mammalian protein, biotinylated, was used in the cell assays; also called wild-type IgE-Fc3-4; WT IgE-Fc3-4
With B2, the binding result (in assay [1]; with CD23 on B cells [3]) was “binds” each time.
